22 molecules from publication PMC6555819, “Comprehensive study of nuclear receptor DNA binding provides a revised framework for understanding receptor specificity” can be followed below.

Settings in all cases: tags: His kept;His cleaved; copies: 1;1; label: surface-attached array probe
In data set [1] the target is RARa:RXRa (Homo sapiens, UniProt P10276;P19793 full;full). As to the kind of experiment: no ligand; PBM; 270 nM : 90 nM RXRa; PBS pH 7.4, 2% milk, 0.02% Triton X-100, 1 mM DTT, BSA, 0.4 mg/ml salmon testes DNA. In outline:
(§1)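 Regression normalization was applied to scanned fluorescence from custom Agilent 4×180K protein-binding microarrays. Before scanning, arrays were incubated 1 h with ligand-free nuclear receptor dimers, and binding was detected with antibodies against each partner (one per run). Binding z-scores use the random background probes as reference.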

For data set [2], the target named is RARg:RXRa (Homo sapiens, UniProt P13631;P19793 full;full). The description is as above. In outline:
as §1

Data set [3] deals with PXR:RXRa (Homo sapiens, UniProt O75469;P19793 full;full). Described as above. In outline: as §1
The target in data set [4] is VDR:RXRa (Homo sapiens, UniProt P11473;P19793 full;full). The description is as above. In outline: as §1
The target of data set [5] is PPARg:RXRa (Homo sapiens, UniProt P37231;P19793 full;full). The data set is described as follows: no ligand; PBM; 180 nM : 90 nM RXRa; PBS pH 7.4, 2% milk, 0.02% Triton X-100, 1 mM DTT, BSA, 0.4 mg/ml salmon testes DNA.
In data set [6] the target is LXRa:RXRa (Homo sapiens, UniProt Q13133;P19793 full;full). The data set is described as follows: no ligand; PBM; 270 nM : 90 nM RXRa; PBS pH 7.4, 2% milk, 0.02% Triton X-100, 1 mM DTT, BSA, 0.4 mg/ml salmon testes DNA. In outline:
as §1

Chain of RARa:RXRa (P10276 whole entry, chain 1 of 2): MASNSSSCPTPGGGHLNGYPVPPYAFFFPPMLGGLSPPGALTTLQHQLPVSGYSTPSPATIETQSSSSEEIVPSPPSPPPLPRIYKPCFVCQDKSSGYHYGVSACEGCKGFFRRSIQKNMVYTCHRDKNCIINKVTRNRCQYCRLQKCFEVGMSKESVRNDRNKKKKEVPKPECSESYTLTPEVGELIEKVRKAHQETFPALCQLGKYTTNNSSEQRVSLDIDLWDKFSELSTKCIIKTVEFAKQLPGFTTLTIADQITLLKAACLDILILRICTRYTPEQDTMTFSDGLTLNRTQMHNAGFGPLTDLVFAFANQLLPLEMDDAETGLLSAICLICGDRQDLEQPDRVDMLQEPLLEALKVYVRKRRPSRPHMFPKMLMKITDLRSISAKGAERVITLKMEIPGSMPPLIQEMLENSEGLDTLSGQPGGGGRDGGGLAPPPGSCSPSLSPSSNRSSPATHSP
Chain of RARa:RXRa (P19793 whole entry, chain 2 of 2): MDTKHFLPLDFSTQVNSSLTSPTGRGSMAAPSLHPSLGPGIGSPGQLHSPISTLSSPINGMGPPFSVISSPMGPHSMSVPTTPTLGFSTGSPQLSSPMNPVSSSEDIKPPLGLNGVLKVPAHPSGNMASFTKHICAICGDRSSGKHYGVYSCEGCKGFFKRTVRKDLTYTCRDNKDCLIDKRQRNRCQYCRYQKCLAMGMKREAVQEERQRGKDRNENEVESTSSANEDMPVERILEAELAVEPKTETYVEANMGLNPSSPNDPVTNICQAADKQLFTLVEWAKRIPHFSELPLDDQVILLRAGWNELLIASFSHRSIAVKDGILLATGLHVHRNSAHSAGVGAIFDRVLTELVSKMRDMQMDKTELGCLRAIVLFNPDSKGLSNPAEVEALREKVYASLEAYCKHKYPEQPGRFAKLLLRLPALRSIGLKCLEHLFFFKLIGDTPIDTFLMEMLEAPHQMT
Chain of PPARg:RXRa (P37231 29-505, chain 1 of 2): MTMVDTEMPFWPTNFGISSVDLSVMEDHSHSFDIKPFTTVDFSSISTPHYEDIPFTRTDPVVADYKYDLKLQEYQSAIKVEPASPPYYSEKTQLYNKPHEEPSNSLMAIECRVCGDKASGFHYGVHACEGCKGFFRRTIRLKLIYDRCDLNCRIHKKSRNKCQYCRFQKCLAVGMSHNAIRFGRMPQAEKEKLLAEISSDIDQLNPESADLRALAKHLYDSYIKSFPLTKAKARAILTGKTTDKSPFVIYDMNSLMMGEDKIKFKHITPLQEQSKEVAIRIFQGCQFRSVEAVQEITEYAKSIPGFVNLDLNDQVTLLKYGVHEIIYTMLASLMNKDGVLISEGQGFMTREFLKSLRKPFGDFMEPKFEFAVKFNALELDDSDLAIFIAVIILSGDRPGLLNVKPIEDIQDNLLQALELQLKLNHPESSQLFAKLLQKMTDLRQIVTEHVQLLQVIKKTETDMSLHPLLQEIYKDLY
Chain of PPARg:RXRa (P19793 whole entry, chain 2 of 2): as the sequence (P19793 whole entry, chain 2 of 2) above
Chain of PXR:RXRa (O75469 whole entry, chain 1 of 2): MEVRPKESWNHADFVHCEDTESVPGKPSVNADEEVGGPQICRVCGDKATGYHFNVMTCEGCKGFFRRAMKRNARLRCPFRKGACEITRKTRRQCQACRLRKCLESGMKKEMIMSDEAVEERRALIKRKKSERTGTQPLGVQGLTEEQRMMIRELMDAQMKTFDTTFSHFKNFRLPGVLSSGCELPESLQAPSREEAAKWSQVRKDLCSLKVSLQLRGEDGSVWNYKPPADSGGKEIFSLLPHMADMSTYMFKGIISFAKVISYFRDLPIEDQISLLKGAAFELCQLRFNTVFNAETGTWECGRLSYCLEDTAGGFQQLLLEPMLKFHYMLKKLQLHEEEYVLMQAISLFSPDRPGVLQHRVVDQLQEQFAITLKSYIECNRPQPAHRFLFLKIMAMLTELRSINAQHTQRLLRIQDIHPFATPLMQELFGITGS
Chain of PXR:RXRa (P19793 whole entry, chain 2 of 2): as the sequence (P19793 whole entry, chain 2 of 2) above
Chain of LXRa:RXRa (Q13133 whole entry, chain 1 of 2): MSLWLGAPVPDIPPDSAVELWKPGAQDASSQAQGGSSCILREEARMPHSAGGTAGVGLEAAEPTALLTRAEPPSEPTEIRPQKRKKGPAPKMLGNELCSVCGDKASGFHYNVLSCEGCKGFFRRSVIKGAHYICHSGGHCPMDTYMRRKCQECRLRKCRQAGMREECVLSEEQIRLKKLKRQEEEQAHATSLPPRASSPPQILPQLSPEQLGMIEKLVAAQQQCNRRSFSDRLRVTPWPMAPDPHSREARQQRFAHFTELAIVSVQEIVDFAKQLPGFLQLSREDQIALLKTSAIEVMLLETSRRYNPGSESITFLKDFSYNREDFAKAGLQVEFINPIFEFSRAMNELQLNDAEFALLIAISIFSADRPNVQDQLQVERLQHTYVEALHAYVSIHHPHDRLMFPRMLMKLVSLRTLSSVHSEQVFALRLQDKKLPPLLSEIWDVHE
Chain of LXRa:RXRa (P19793 whole entry, chain 2 of 2): as the sequence (P19793 whole entry, chain 2 of 2) above
Chain of RARg:RXRa (P13631 whole entry, chain 1 of 2): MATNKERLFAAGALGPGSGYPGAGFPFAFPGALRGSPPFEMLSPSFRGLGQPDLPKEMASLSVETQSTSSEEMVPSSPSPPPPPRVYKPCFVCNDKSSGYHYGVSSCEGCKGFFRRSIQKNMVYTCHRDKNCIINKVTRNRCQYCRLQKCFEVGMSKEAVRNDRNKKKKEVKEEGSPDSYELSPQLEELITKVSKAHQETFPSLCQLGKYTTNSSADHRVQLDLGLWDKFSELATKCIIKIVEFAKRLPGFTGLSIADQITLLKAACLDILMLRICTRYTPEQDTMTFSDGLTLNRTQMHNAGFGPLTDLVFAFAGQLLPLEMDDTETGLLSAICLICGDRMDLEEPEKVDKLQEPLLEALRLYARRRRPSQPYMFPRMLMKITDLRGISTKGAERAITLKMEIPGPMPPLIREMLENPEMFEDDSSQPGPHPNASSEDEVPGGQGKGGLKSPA
Chain of RARg:RXRa (P19793 whole entry, chain 2 of 2): as the sequence (P19793 whole entry, chain 2 of 2) above
Chain of VDR:RXRa (P11473 whole entry, chain 1 of 2): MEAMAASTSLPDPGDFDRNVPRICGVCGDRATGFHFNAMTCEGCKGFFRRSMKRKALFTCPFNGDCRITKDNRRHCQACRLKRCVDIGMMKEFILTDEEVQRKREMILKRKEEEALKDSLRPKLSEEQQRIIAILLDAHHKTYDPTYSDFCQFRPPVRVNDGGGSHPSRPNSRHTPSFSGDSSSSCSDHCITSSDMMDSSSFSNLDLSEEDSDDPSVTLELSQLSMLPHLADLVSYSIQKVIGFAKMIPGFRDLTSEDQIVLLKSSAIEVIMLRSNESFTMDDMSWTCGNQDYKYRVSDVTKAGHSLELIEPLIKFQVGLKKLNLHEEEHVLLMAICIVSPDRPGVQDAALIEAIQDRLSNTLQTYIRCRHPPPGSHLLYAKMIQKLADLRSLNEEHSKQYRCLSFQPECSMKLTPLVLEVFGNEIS
Chain of VDR:RXRa (P19793 whole entry, chain 2 of 2): as the sequence (P19793 whole entry, chain 2 of 2) above

B1: NRC3_wobSeed98_DR4_G11T_o1 (dsDNA)
DNA 1: GCACTAGTTGTTCAGCTGAGGTCACACACAATTCGGGCGATTGACAGCGTAGAATGAAGG
DNA 2: CCTTCATTCTACGCTGTCAATCGCCCGAATTGTGTGTGACCTCAGCTGAACAACTAGTGC
Consider B1, for which, in data set [1], the binding signal was 4.63 PBM z-score against 500 random probes.

B2: NRC3_wobSeed37_DR1_G24A_o1 (dsDNA)
DNA 1: GCCGTCCAAGGTCAAAGGTCAGTAAAGAGATGACGGGCGATTGACAGCGTAGAATGAAGG
DNA 2: CCTTCATTCTACGCTGTCAATCGCCCGTCATCTCTTTACTGACCTTTGACCTTGGACGGC
As to B2, the binding signal in data set [1] is 9.33 PBM z-score against 500 random probes.

B3: NRC3_wobSeed37_DR1_G22C_o1 (dsDNA)
DNA 1: GCCGTCCAAGGTCAAAGGTCACTGAAGAGATGACGGGCGATTGACAGCGTAGAATGAAGG
DNA 2: CCTTCATTCTACGCTGTCAATCGCCCGTCATCTCTTCAGTGACCTTTGACCTTGGACGGC
Consider B3, for which the binding signal was 9.31 PBM z-score against 500 random probes in data set [2], 7.38 PBM z-score against 500 random probes in data set [3], 7.17 PBM z-score against 500 random probes in data set [4] and 11.9 PBM z-score against 500 random probes in data set [5].

B4: NRC3_wobSeed74_DR3_C13T_o1 (dsDNA)
DNA 1: GCTCTAGTTGGTTACGGAGGTCACACACGACGGGTAGCGATTGACAGCGTAGAATGAAGG
DNA 2: CCTTCATTCTACGCTGTCAATCGCTACCCGTCGTGTGTGACCTCCGTAACCAACTAGAGC
On to B4, for which the binding signal in data set [1] was 4.41 PBM z-score against 500 random probes.

B5: NRC3_wobSeed25_DR1_C26T_o1 (dsDNA)
DNA 1: GCCAAACTAGGTCAAAGGTCAAAGTTGAGCCAACCAGCGATTGACAGCGTAGAATGAAGG
DNA 2: CCTTCATTCTACGCTGTCAATCGCTGGTTGGCTCAACTTTGACCTTTGACCTAGTTTGGC
Regarding B5, the binding signal in data set [1] is 9.38 PBM z-score against 500 random probes.

B6: NRC3_wobSeed25_DR1_A5G_o1 (dsDNA)
DNA 1: GCCAGACTAGGTCAAAGGTCAAAGTCGAGCCAACCAGCGATTGACAGCGTAGAATGAAGG
DNA 2: CCTTCATTCTACGCTGTCAATCGCTGGTTGGCTCGACTTTGACCTTTGACCTAGTCTGGC
Take B6: the binding signal in data set [1] is 9.27 PBM z-score against 500 random probes.

B7: NRC3_wobSeed29_DR1_C25T_o1 (dsDNA)
DNA 1: GCGCTTACGGGTCAAAGGTTATAGTATGAATAGAATGCGATTGACAGCGTAGAATGAAGG
DNA 2: CCTTCATTCTACGCTGTCAATCGCATTCTATTCATACTATAACCTTTGACCCGTAAGCGC
Take B7: the binding signal in data set [1] is 8.73 PBM z-score against 500 random probes.

B8: NRC3_random_hg19_385_o1 (dsDNA)
DNA 1: GCTCTATGGTCACTAGACCTTGGGATGCACCAAGGCGCGATTGACAGCGTAGAATGAAGG
DNA 2: CCTTCATTCTACGCTGTCAATCGCGCCTTGGTGCATCCCAAGGTCTAGTGACCATAGAGC
Turning to B8, the figures for the binding signal in data set [3], in data set [6] and in data set [5] were 0.11 PBM z-score against 500 random probes, 0.2 PBM z-score against 500 random probes and 0.45 PBM z-score against 500 random probes, respectively.

B9: NRC3_wobSeed13_DR0_G17C_o1 (dsDNA)
DNA 1: GCCGTCCAAGGTCAAGCTCAGTGAAAGAGACTCGAAGCGATTGACAGCGTAGAATGAAGG
DNA 2: CCTTCATTCTACGCTGTCAATCGCTTCGAGTCTCTTTCACTGAGCTTGACCTTGGACGGC
B9: in data set [1], the binding signal is 4.6 PBM z-score against 500 random probes.

B10: NRC3_wobSeed13_DR0_C19G_o1 (dsDNA)
DNA 1: GCCGTCCAAGGTCAAGGTGAGTGAAAGAGACTCGAAGCGATTGACAGCGTAGAATGAAGG
DNA 2: CCTTCATTCTACGCTGTCAATCGCTTCGAGTCTCTTTCACTCACCTTGACCTTGGACGGC
Take B10: in data set [1], the binding signal was 4.49 PBM z-score against 500 random probes.

B11: NRC3_random_hg19_195_o1 (dsDNA)
DNA 1: GCGGACTGTCTGCAAAGAGTCCTGTGATATGATCTGGCGATTGACAGCGTAGAATGAAGG
DNA 2: CCTTCATTCTACGCTGTCAATCGCCAGATCATATCACAGGACTCTTTGCAGACAGTCCGC
Take B11: the binding signal in data set [3] is -0.96 PBM z-score against 500 random probes; in data set [6] it was -1.32 PBM z-score against 500 random probes; in data set [5], 0.1 PBM z-score against 500 random probes.

B12: NRC3_wobSeed49_DR2_A5C_o1 (dsDNA)
DNA 1: GCCACACTAGGTCAAGAGGTCAAAGTCCGCTTCCCGGCGATTGACAGCGTAGAATGAAGG
DNA 2: CCTTCATTCTACGCTGTCAATCGCCGGGAAGCGGACTTTGACCTCTTGACCTAGTGTGGC
Take B12: in data set [1], the binding signal was 8.44 PBM z-score against 500 random probes.

B13: NRC3_wobSeed5_DR0_G23T_o1 (dsDNA)
DNA 1: GCCCTTACGGGTCAAGGTTATATCACGGGTGGTACGGCGATTGACAGCGTAGAATGAAGG
DNA 2: CCTTCATTCTACGCTGTCAATCGCCGTACCACCCGTGATATAACCTTGACCCGTAAGGGC
As for B13, the binding signal in data set [1] is 4.39 PBM z-score against 500 random probes.

B14: NRC3_wobSeed30_DR1_G7A_o1 (dsDNA)
DNA 1: GCACTAACAGGCCAAGGGTCACTCAAGATTAGTCCGGCGATTGACAGCGTAGAATGAAGG
DNA 2: CCTTCATTCTACGCTGTCAATCGCCGGACTAATCTTGAGTGACCCTTGGCCTGTTAGTGC
For B14, the binding signal in data set [1] was 4.53 PBM z-score against 500 random probes.

B15: NRC3_wobSeed46_DR1_C7A_o1 (dsDNA)
DNA 1: GCTTACAAAGGTGAAAGGTCGTTGATGCACGCCTTGGCGATTGACAGCGTAGAATGAAGG
DNA 2: CCTTCATTCTACGCTGTCAATCGCCAAGGCGTGCATCAACGACCTTTCACCTTTGTAAGC
For the molecule B15, the binding signal in data set [1] is 7.64 PBM z-score against 500 random probes.

B16: NRC3_wobSeed28_DR1_T8A_o1 (dsDNA)
DNA 1: GCCCTACAGGGCCAAAGGTCATTGATTCCAATGCTCGCGATTGACAGCGTAGAATGAAGG
DNA 2: CCTTCATTCTACGCTGTCAATCGCGAGCATTGGAATCAATGACCTTTGGCCCTGTAGGGC
With B16, the binding signal in data set [1] is 7.45 PBM z-score against 500 random probes.

B17: NRC3_wobSeed28_DR1_T22G_o1 (dsDNA)
DNA 1: GCCCTACTGGGCCAAAGGTCAGTGATTCCAATGCTCGCGATTGACAGCGTAGAATGAAGG
DNA 2: CCTTCATTCTACGCTGTCAATCGCGAGCATTGGAATCACTGACCTTTGGCCCAGTAGGGC
On to B17, for which the binding signal in data set [1] is 4.44 PBM z-score against 500 random probes.

B18: NRC3_wobSeed109_DR4_G25C_o1 (dsDNA)
DNA 1: GCCGTCCAAGGTCATAGGAGGTCACTGAAGACAGATGCGATTGACAGCGTAGAATGAAGG
DNA 2: CCTTCATTCTACGCTGTCAATCGCATCTGTCTTCAGTGACCTCCTATGACCTTGGACGGC
As for B18, the binding signal in data set [1] is 7.71 PBM z-score against 500 random probes.

B19: NRC3_wobSeed109_DR4_G17A_o1 (dsDNA)
DNA 1: GCCGTCCAAGGTCATAAGAGGTCAGTGAAGACAGATGCGATTGACAGCGTAGAATGAAGG
DNA 2: CCTTCATTCTACGCTGTCAATCGCATCTGTCTTCACTGACCTCTTATGACCTTGGACGGC
On to B19, for which the binding signal in data set [1] is 7.18 PBM z-score against 500 random probes.

B20: NRC3_wobSeed17_DR0_A24T_o1 (dsDNA)
DNA 1: GCATATGTAGGTTAGGGTCATTCTGAAAGTAGGGAAGCGATTGACAGCGTAGAATGAAGG
DNA 2: CCTTCATTCTACGCTGTCAATCGCTTCCCTACTTTCAGAATGACCCTAACCTACATATGC
Regarding B20, the binding signal in data set [1] is 4.56 PBM z-score against 500 random probes.

B21: NRC3_wobSeed41_DR1_T8G_o1 (dsDNA)
DNA 1: GCATATGGAGGTTAAGGGTCATTCAGGTTGGTTCGCGCGATTGACAGCGTAGAATGAAGG
DNA 2: CCTTCATTCTACGCTGTCAATCGCGCGAACCAACCTGAATGACCCTTAACCTCCATATGC
As for B21, in data set [1], the binding signal was 7.62 PBM z-score against 500 random probes.

B22: NRC3_wobSeed97_DR4_A6T_o1 (dsDNA)
DNA 1: GCCAATCTAGGTCACGAAAGGTCAAAGTCGAATGACGCGATTGACAGCGTAGAATGAAGG
DNA 2: CCTTCATTCTACGCTGTCAATCGCGTCATTCGACTTTGACCTTTCGTGACCTAGATTGGC
Turning to B22, in data set [1], the binding signal is 8.17 PBM z-score against 500 random probes.
